Measured values reported in publication PMC9923923 (2023).

What was measured:
[1] = target: TLR4 (Homo sapiens, UniProt O00206); test: SPR
[2] = target: TLR4/MD2 complex (Homo sapiens, UniProt O00206); test: SPR
Sequence of TLR4/MD2 complex (O00206 24-839, chain 1 of 2): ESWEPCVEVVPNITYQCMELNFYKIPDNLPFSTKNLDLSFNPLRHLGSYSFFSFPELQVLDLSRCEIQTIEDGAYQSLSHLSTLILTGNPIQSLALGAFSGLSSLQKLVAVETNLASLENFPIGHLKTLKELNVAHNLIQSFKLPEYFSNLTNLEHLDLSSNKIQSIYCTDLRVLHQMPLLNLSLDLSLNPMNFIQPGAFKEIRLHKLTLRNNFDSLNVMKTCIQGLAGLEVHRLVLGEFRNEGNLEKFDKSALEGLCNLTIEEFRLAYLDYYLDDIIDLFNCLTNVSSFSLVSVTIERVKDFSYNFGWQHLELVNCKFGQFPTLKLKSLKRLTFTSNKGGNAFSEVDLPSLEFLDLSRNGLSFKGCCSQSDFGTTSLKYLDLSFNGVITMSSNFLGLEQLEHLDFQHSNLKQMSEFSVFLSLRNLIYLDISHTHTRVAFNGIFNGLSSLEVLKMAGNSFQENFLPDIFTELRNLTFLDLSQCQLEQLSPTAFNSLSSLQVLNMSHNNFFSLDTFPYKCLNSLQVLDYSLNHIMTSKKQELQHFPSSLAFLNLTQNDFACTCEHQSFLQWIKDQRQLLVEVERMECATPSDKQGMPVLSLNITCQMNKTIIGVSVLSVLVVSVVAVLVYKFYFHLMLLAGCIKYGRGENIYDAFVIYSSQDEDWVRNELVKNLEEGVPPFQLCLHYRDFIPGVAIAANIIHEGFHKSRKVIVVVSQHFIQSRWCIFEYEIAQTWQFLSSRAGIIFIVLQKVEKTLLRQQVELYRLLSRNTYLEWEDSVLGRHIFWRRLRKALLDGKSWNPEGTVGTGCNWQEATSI
Sequence of TLR4/MD2 complex (chain, as listed by the source, chain 2 of 2): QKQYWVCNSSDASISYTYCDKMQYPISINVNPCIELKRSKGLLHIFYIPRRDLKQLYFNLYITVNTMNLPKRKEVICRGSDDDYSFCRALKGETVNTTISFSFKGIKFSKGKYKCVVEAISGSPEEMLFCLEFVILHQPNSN

Sequence of TLR4 (O00206 24-839): as the sequence (O00206 24-839, chain 1 of 2) above

Row | Binder | Kd [1] [nM] | Kd [2] [nM]
1 | eCIRP (protein, 5 nM PS-OMe miR130 (value in text)) MASDEGKLFVGGLSFDTNEQALEQVFSKYGQISEVVVVKDRETQRSRGFGFVTFENIDDAKDAMMAMNGKSVDGRQIRVDQAGKSSDNRSRGYRGGSAGGRGFFRGGRSRGRGFSRGGGDRGYGGGRFESRSGGYGGSRDYYASRSQGGSYGYRSSGGSYRDSYDSYATHNE | 612 | 
2 | eCIRP (protein, 5 nM PS-OMe miR130 (value in legend)) MASDEGKLFVGGLSFDTNEQALEQVFSKYGQISEVVVVKDRETQRSRGFGFVTFENIDDAKDAMMAMNGKSVDGRQIRVDQAGKSSDNRSRGYRGGSAGGRGFFRGGRSRGRGFSRGGGDRGYGGGRFESRSGGYGGSRDYYASRSQGGSYGYRSSGGSYRDSYDSYATHNE | 139 | 

Now from value to binder:

Row | Kd [1] [nM] | Kd [2] [nM] | Binder
3 | 69.7 | 20 | eCIRP (protein) MASDEGKLFVGGLSFDTNEQALEQVFSKYGQISEVVVVKDRETQRSRGFGFVTFENIDDAKDAMMAMNGKSVDGRQIRVDQAGKSSDNRSRGYRGGSAGGRGFFRGGRSRGRGFSRGGGDRGYGGGRFESRSGGYGGSRDYYASRSQGGSYGYRSSGGSYRDSYDSYATHNE
4 |  | 113 | eCIRP (protein, 5 nM PS-OMe miR130) MASDEGKLFVGGLSFDTNEQALEQVFSKYGQISEVVVVKDRETQRSRGFGFVTFENIDDAKDAMMAMNGKSVDGRQIRVDQAGKSSDNRSRGYRGGSAGGRGFFRGGRSRGRGFSRGGGDRGYGGGRFESRSGGYGGSRDYYASRSQGGSYGYRSSGGSYRDSYDSYATHNE
